Tests used:
Format in all cases: cell-based
[1] = test system: HDR-proficient DLD1 cells; experiment: Selectivity of combination therapy in HDR-proficient cells; conditions: 5 nM olaparib, 10 μM di-scFv, alone or combined
Method: Homology-directed repair (HDR) deficient BRCA2-DLD1 cells and PTEN-U251 cells were treated with control, 5 nM olaparib, 10 μM di-scFv, or 10 μM di-scFv+5 nM olaparib. Surviving fraction was determined by colony formation assay.
It was then determined whether the combination of di-scFv and olaparib is simply universally cytotoxic, regardless of DNA repair status. To evaluate this possibility, HDR-proficient DLD1 cells were treated with the above regimen to confirm selectivity of combination therapy to HDR-deficient malignant cells.

[2] = test system: BRCA2-deficient DLD1 colon cancer cells; experiment: Cell viability by Trypan blue exclusion assay, BRCA2-deficient cells; conditions: BRCA2-deficient DLD1, 7 days, FIG. 10
Method: (§1) Next, a matched pair of BRCA2-proficient and deficient DLD1 colon cancer cells was treated with control media or media containing Variants 10, 13, 15, or 16. Cell viability was determined 7 days later by Trypan blue exclusion assay and by direct visualization of cell morphology by light microscopy. […] Representative light microscope images shown the changes in morphology in the BRCA2-deficient cancer cells treated with the variants are shown in FIG. 10, Panel A. Quantitative analysis of the cell survival by Trypan blue exclusion assay is shown in FIG. 10, Panel B.

[3] = test system: PTEN-deficient U87 human glioma cells; experiment: Cell viability by Trypan blue exclusion assay and light microscopy; conditions: PTEN-deficient U87, 7 days after treatment, FIG. 9
Method: Cell viability of PTEN-deficient U87 human glioma cells was also assessed following treatment with control media or media containing Variants 10, 13, 15, or 16. Cell viability was determined 7 days after treatment using Trypan blue exclusion assay and by direct visualization of cell morphology by light microscopy.

[4] = test system: PTEN-deficient U251 human glioma cells; experiment: Phospho-53BP1 foci accumulation (DNA damage), PTEN-deficient cells; conditions: PTEN-deficient U251, twenty-four hours, FIG. 8
Method: A matched pair of PTEN-proficient and deficient U251 human glioma cells were treated with control media or media containing Variant 10, 11, 13, 15, or 16 for twenty-four hours. Cells were then washed, fixed, blocked, and then probed with an anti-phospho-53BP1 antibody overnight. Cells were then washed and incubated with an AlexaFluor555-conjugated secondary antibody. Finally, cells were washed, counterstained with DAPI, and visualized under a fluorescence microscope. Images were saved and evaluated by CellProfiler to determine mean number of phospho-53BP1 foci per cell.
A matched pair of BRCA2-proficient and deficient DLD1 colon cancer cells and PTEN-proficient and deficient U251 human glioma cells were treated with control media or media containing 10 μM di-scFv variant 13 (SEQ ID NO: 41), 5 nM olaparib, or combination treatment.

[5] = test system: BRCA2-proficient DLD1 colon cancer cells; experiment: Cell viability by Trypan blue exclusion assay, BRCA2-proficient cells; conditions: BRCA2-proficient DLD1, 7 days, FIG. 10
Method: as §1

DLD1 colon cancer cells = experiment: Alkaline phosphatase-based survey of nuclear penetration; conditions: DLD1 cells treated one hour; FIG. 5

Molecule	cell death [1]	cell viability (cell killing) [2]	cell viability relative to control treated cells [3]	mean number of phospho-53BP1 foci per cell [4]	cell viability (toxicity) [5]	nuclear penetration (histogram of cell counts versus nuclear staining intensity) relative to the yeast prototype (DLD1 colon cancer cells)
O=C(c1cc(Cc2n[nH]c(=O)c3ccccc23)ccc1F)N1CCN(C(=O)C2CC2)CC1 [olaparib, reference compound]	remain resistant					
Variant 10: cell penetrating anti-DNA di-scFv variant, amino acid sequence SEQ ID NO: 38 (protein, Variant 10) scFv: DIQMTQSPSSLSASVGDRVTITCRASKSVSTSSYSYMHWYQQKPGKAPKLLIKYASYLESGVPSRFSGSGSGTDFTLTISSLQPEDFATYYCQHSREFPWTFGQGTKVEIKRADAAPGGGGSGGGGSGGGGSEVQLVESGGGLVQPGGSLRLSCAASGFTFSNYGMHWVRQAPGKGLEWVSYISSSSSTIYYADSVKGRFTISRDNAKNSLYLQMNSLRAEDTAVYYCARRGLLLDYWGQGTTVTVSSASTKGPSVFPLAPLESSGSDIQMTQSPSSLSASVGDRVTITCRASKSVSTSSYSYMHWYQQKPGKAPKLLIKYASYLESGVPSRFSGSGSGTDFTLTISSLQPEDFATYYCQHSREFPWTFGQGTKVEIKRADAAPGGGGSGGGGSGGGGSEVQLVESGGGLVQPGGSLRLSCAASGFTFSNYGMHWVRQAPGKGLEWVSYISSSSSTIYYADSVKGRFTISRDNAKNSLYLQMNSLRAEDTAVYYCARRGLLLDYWGQGTTVTVSS		killed by the variants	caused reductions in cell viability	increased the number of foci	not toxic	
Variant 16: cell penetrating anti-DNA di-scFv variant, amino acid sequence SEQ ID NO: 44 (protein, Variant 16) scFv: DIQMTQSPSSLSASVGDRVTITCRASKTVSTSSYSYMHWYQQKPGKAPKLLIKYASYLESGVPSRFSGSGSGTDFTLTISSLQPEDFATYYCQHSREFPWTFGQGTKVEIKRADAAPGGGGSGGGGSGGGGSEVQLVESGGGLVQPGGSLRLSCAASGFTFSNYGMHWVRQAPGKGLEWVSYISSGSSTIYYADSVKGRFTISRDNAKNSLYLQMNSLRAEDTAVYYCARRGLLLDYWGQGTTVTVSSASTKGPSVFPLAPLESSGSDIQMTQSPSSLSASVGDRVTITCRASKTVSTSSYSYMHWYQQKPGKAPKLLIKYASYLESGVPSRFSGSGSGTDFTLTISSLQPEDFATYYCQHSREFPWTFGQGTKVEIKRADAAPGGGGSGGGGSGGGGSEVQLVESGGGLVQPGGSLRLSCAASGFTFSNYGMHWVRQAPGKGLEWVSYISSGSSTIYYADSVKGRFTISRDNAKNSLYLQMNSLRAEDTAVYYCARRGLLLDYWGQGTTVTVSS		killed by the variants	caused reductions in cell viability	increased the number of foci	not toxic	
Variant 11: cell penetrating anti-DNA di-scFv variant, amino acid sequence SEQ ID NO: 39 (protein, Variant 11) scFv: DIQMTQSPSSLSASVGDRVTITCRASKSVSTSSYSYMHWYQQKPGKAPKLLIKYASYLESGVPSRFSGSGSGTDFTLTISSLQPEDFATYYCQHSREFPWTFGQGTKVEIKRADAAPGGGGSGGGGSGGGGSEVQLVESGGGVVQPGGSLRLSCAASGFTFSNYGMHWVRQAPEKGLEWVSYISSSSSTIYYADSVKGRFTISRDNSKNTLYLQMNSLRAEDTAVYYCARRGLLLDYWGQGTTVTVSSASTKGPSVFPLAPLESSGSDIQMTQSPSSLSASVGDRVTITCRASKSVSTSSYSYMHWYQQKPGKAPKLLIKYASYLESGVPSRFSGSGSGTDFTLTISSLQPEDFATYYCQHSREFPWTFGQGTKVEIKRADAAPGGGGSGGGGSGGGGSEVQLVESGGGVVQPGGSLRLSCAASGFTFSNYGMHWVRQAPEKGLEWVSYISSSSSTIYYADSVKGRFTISRDNSKNTLYLQMNSLRAEDTAVYYCARRGLLLDYWGQGTTVTVSS				increased the number of foci		
Variant 15: cell penetrating anti-DNA di-scFv variant, amino acid sequence SEQ ID NO: 43 (protein, Variant 15) scFv: DIQMTQSPSSLSASLGDRATITCRASKTVSTSSYSYMHWYQQKPGQPPKLLIKYASYLESGVPSRFSGSGSGTDFTLTISSLQPEDAATYYCQHSREFPWTFGGGTKVEIKRADAAPGGGGSGGGGSGGGGSEVQLVESGGGDVKPGGSLRLSCAASGFTFSNYGMHWVRQAPEKGLEWVSYISSGSSTIYYADSVKGRFTISRDNSKNTLYLQMNSLRAEDTAVYYCARRGLLLDYWGQGTTVTVSSASTKGPSVFPLAPLESSGSDIQMTQSPSSLSASLGDRATITCRASKTVSTSSYSYMHWYQQKPGQPPKLLIKYASYLESGVPSRFSGSGSGTDFTLTISSLQPEDAATYYCQHSREFPWTFGGGTKVEIKRADAAPGGGGSGGGGSGGGGSEVQLVESGGGDVKPGGSLRLSCAASGFTFSNYGMHWVRQAPEKGLEWVSYISSGSSTIYYADSVKGRFTISRDNSKNTLYLQMNSLRAEDTAVYYCARRGLLLDYWGQGTTVTVSS		killed by the variants	caused reductions in cell viability	increased the number of foci	not toxic	notable right shift and narrowing of distributions relative to the yeast prototype

Source: patent publication US20240052063A1, “Binding Proteins 2” (Nucleus Therapeutics Pty. Ltd., priority 2017, published 2024)
